Measured values as given in US20210355194A1 (TWIST BIOSCIENCE, published 2021).

B1: variant 6-25 (Fc fusion)
VHH: EVQLVESGGGLVQPGGSLRLSCAASGLTFGTYTMGWFRQAPGKEREFVAAISRFGSTYYADSVKGRFTISADNSKNTAYLQMNSLKPEDTAVYYCARGGDYDFWSVDYMDVWGQGTLVTVSS
B2: variant 6-44 (Fc fusion)
VHH: EVQLVESGGGLVQPGGSLRLSCAASGGTFGVYHMGWFRQAPGKEREFIGRITWTDGSTYYADSVKGRFTISADNSKNTAYLQMNSLKPEDTAVYYCFGLLEVYDMTFDYWGQGTLVTVSS
B3: variant 6-42 (Fc fusion)
VHH: EVQLVESGGGLVQPGGSLRLSCAASGDTYGSYWMGWFRQAPGKEREFVAVITSGGSTNYADSVKGRFTISADNSKNTAYLQMNSLKPEDTAVYYCTHVQNSYYYAMDVWGQGTLVTVSS
B4: variant 6-34 (Fc fusion)
VHH: EVQLVESGGGLVQPGGSLRLSCAASGSAFRSNAMGWFRQAPGKEREFVAHISWSSKSTYYADSVKGRFTISADNSKNTAYLQMNSLKPEDTAVYYCATYCSSTSCFDYWGQGTLVTVSS
B5: variant 6-20 (Fc fusion)
VHH: EVQLVESGGGLVQPGGSLRLSCAASGSTLPYHAMGWFRQAPGKEREFVAAITWNGASTSYADSVKGRFTISADNSKNTAYLQMNSLKPEDTAVYYCARDRYYDTSASYFESETWGQGTLVTVSS
notes: VHH-Fc
B6: variant 6-26 (Fc fusion)
VHH: EVQLVESGGGLVQPGGSLRLSCAASGDTFSTSWMGWFRQAPGKEREFVATINTGGGTNYADSVKGRFTISADNSKNTAYLQMNSLKPEDTAVYYCARVTTSFDYWGQGTLVTVSS
notes: VHH-Fc
B7: variant 6-30 (Fc fusion)
VHH: EVQLVESGGGLVQPGGSLRLSCAASGFAFGDSWMGWFRQAPGKEREFVATINWSGVTAYADSVKGRFTISADNSKNTAYLQMNSLKPEDTAVYYCARADGYFDYWGQGTLVTVSS
B8: variant 6-77 (Fc fusion)
VHH: EVQLVESGGGLVQPGGSLRLSCAASGFTFDRSWMGWFRQAPGKEREFVAAVTEGGTTSYADSVKGRFTISADNSKNTAYLQMNSLKPEDTAVYYCARADYDFDYWGQGTLVTVSS
B9: variant 6-23 (Fc fusion)
VHH: EVQLVESGGGLVQPGGSLRLSCAASGSIFSMNTMGWFRQAPGKEREFVALINRSGGGINYADSVKGRFTISADNSKNTAYLQMNSLKPEDTAVYYCVRLSSGYYDFDYWGQGTLVTVSS
B10: variant 6-45 (Fc fusion)
VHH: EVQLVESGGGLVQPGGSLRLSCAASGNMFSINAMGWFRQAPGKEREFVTLISWSSGRTSYADSVKGRFTISADNSKNTAYLQMNSLKPEDTAVYYCASLGYCSGGSCFDYWGQGTLVTVSS
B11: variant 6-14 (Fc fusion)
VHH: EVQLVESGGGLVQPGGSLRLSCAASGITFRFKAMGWFRQAPGKEREFVAAVSWDGRNTYYADSVKGRFTISADNSKNTAYLQMNSLKPEDTAVYYCASDYYYMDVWGQGTLVTVSS
B12: variant 6-13 (Fc fusion)
VHH: EVQLVESGGGLVQPGGSLRLSCAASGLTFNDYAMGWFRQAPGKEREFVAHIPRSTYSPYYADSVKGRFTISADNSKNTAYLQMNSLKPEDTAVYYCAFLVGPQGVDHGAFDVWGQGTLVTVSS
B13: variant 6-24 (Fc fusion)
VHH: EVQLVESGGGLVQPGGSLRLSCAASGFTLDYYAMGWFRQAPGKEREFVAAINWSGDNTHYADSVKGRFTISADNSKNTAYLQMNSLKPEDTAVYYCARAPFYCTTTKCQDNYYYMDVWGQGTLVTVSS
B14: variant 6-12 (Fc fusion)
VHH: EVQLVESGGGLVQPGGSLRLSCAASGSTYTTYSMGWFRQAPGKEREFVAAISGSENVTSYADSVKGRFTISADNSKNTAYLQMNSLKPEDTAVYYCARVDDYMDVWGQGTLVTVSS
B15: variant 6-46 (Fc fusion)
VHH: EVQLVESGGGLVQPGGSLRLSCAASGLTFSAMGWFRQAPGKEREFVALIRRDGSTIYADSVKGRFTISADNSKNTAYLQMNSLKPEDTAVYYCAALGILFGYDAFDIWGQGTLVTVSS
B16: variant 6-33 (Fc fusion)
VHH: EVQLVESGGGLVQPGGSLRLSCAASGTFQRINHMGWFRQAPGKEREFVATINTGGQPNYADSVKGRFTISADNSKNTAYLQMNSLKPEDTAVYYCASLIAAQDYYFDYWGQGTLVTVSS
B17: variant 6-10 (Fc fusion)
VHH: EVQLVESGGGLVQPGGSLRLSCAASGSIASIHAMGWFRQAPGKEREFVAAISRSGGFGSYADSVKGRFTISADNSKNTAYLQMNSLKPEDTAVYYCARDDKYYDSSGYPAYFQHWGQGTLVTVSS
B18: variant 6-41 (Fc fusion)
VHH: EVQLVESGGGLVQPGGSLRLSCAASGFTFSTSWMGWFRQAPGKEREFVASINEYGGRNYADSVKGRFTISADNSKNTAYLQMNSLKPEDTAVYYCAGLHYYYDSSGYNPTEYYGMDVWGQGTLVTVSS
B19: variant 6-36 (Fc fusion)
VHH: EVQLVESGGGLVQPGGSLRLSCAASGFDFSVSWMGWFRQAPGKEREFVTAITWSGDSTNYADSVKGRFTISADNSKNTAYLQMNSLKPEDTAVYYCASLLHTGPSGGNYFDYWGQGTLVTVSS
B20: variant 6-16 (Fc fusion)
VHH: EVQLVESGGGLVQPGGSLRLSCAASGFTFDDAAMGWFRQAPGKEREFVAHISWSGGSTYYADSVKGRFTISADNSKNTAYLQMNSLKPEDTAVYYCATFGATVTATNDAFDIWGQGTLVTVSS
B21: variant 6-19 (Fc fusion)
VHH: EVQLVESGGGLVQPGGSLRLSCAASGSILSIAVMGWFRQAPGKEREFVAAISPSAVTTYYADSVKGRFTISADNSKNTAYLQMNSLKPEDTAVYYCAIGYYDSSGYFDYWGQGTLVTVSS
B22: variant 6-18 (Fc fusion)
VHH: EVQLVESGGGLVQPGGSLRLSCAASGLTFRNYAMGWFRQAPGKEREFIAGMMWSGGTTTYADSVKGRFTISADNSKNTAYLQMNSLKPEDTAVYYCAREGYYYDSSGYLNYFDYWGQGTLVTVSS
B23: variant 6-6 (Fc fusion)
VHH: EVQLVESGGGLVQPGGSLRLSCAASGTTLDYYAMGWFRQAPGKERELVAAISWSGGSTAYADSVKGRFTISADNSKNTAYLQMNSLKPEDTAVYYCAREDYYDSSGYSWGQGTLVTVSS
B24: variant 6-32 (Fc fusion)
VHH: EVQLVESGGGLVQPGGSLRLSCAASGFTLDYYDMGWFRQAPGKEREFVALISWSGGSTYYADSVKGRFTISADNSKNTAYLQMNSLKPEDTAVYYCATDFYGWGTRERDAFDIWGQGTLVTVSS
B25: variant 6-17 (Fc fusion)
VHH: EVQLVESGGGLVQPGGSLRLSCAASGNTGSTGYMGWFRQAPGKEREMVAGVINDGSTVYADSVKGRFTISADNSKNTAYLQMNSLKPEDTAVYYCARLATSHQDGTGYLFDYWGQGTLVTVSS
B26: variant 6-31 (Fc fusion)
VHH: EVQLVESGGGLVQPGGSLRLSCAASGDTFSANRMGWFRQAPGKEREFVASITWSSANTYYADSVKGRFTISADNSKNTAYLQMNSLKPEDTAVYYCATFNWNDEGFDFWGQGTLVTVSS
B27: variant 6-39 (Fc fusion)
VHH: EVQLVESGGGLVQPGGSLRLSCAASGFTFSPSWMGWFRQAPGKEREFVAAISWSGGSTAYADSVKGRFTISADNSKNTAYLQMNSLKPEDTAVYYCHGLGEGDPYGDYEGYFDLWGQGTLVTVSS
B28: variant 6-38 (Fc fusion)
VHH: EVQLVESGGGLVQPGGSLRLSCAASGNTFSGGFMGWFRQAPGKEREFVAVISSLSSKSYADSVKGRFTISADNSKNTAYLQMNSLKPEDTAVYYCAKVDSGYDYWGQGTLVTVSS
B29: variant 6-28 (Fc fusion)
VHH: EVQLVESGGGLVQPGGSLRLSCAASGDTYGSYWMGWFRQAPGKEREFVATITSDDRTNYADSVKGRFTISADNSKNTAYLQMNSLKPEDTAVYYCARVTSSLSGMDVWGQGTLVTVSS
B30: variant 6-22 (Fc fusion)
VHH: EVQLVESGGGLVQPGGSLRLSCAASGRTFSEVVMGWFRQAPGKEREFVATIHSSGSTSYADSVKGRFTISADNSKNTAYLQMNSLKPEDTAVYYCVRVTSDYSMDSWGQGTLVTVSS
B31: variant 6-37 (Fc fusion)
VHH: EVQLVESGGGLVQPGGSLRLSCAASGHTFSTSWMGWFRQAPGKEREFVATINSLGGTNYADSVKGRFTISADNSKNTAYLQMNSLKPEDTAVYYCARVSSGDYGMDVWGQGTLVTVSS
B32: variant 6-40 (Fc fusion)
VHH: EVQLVESGGGLVQPGGSLRLSCAASGFTFSDYWMGWFRQAPGKERELVARVWWNGGSAYYADSVKGRFTISADNSKNTAYLQMNSLKPEDTAVYYCAREVLRQQVVLDYWGQGTLVTVSS
B33: variant 6-15 (Fc fusion)
VHH: EVQLVESGGGLVQPGGSLRLSCAASGSTVLINAMGWFRQAPGKEREFVAAVRWSDDYTYYADSVKGRFTISADNSKNTAYLQMNSLKPEDTAVYYCAKEGRAGSLDYWGQGTLVTVSS
B34: variant 6-43 (Fc fusion)
VHH: EVQLVESGGGLVQPGGSLRLSCAASGRTFSSYAMMGWFRQAPGKEREFVASVNWDASQINYADSVKGRFTISADNSKNTAYLQMNSLKPEDTAVYYCTTLGAVYFDSSGYHDYFDYWGQGTLVTVSS

Molecular target: CV S-protein construct 6 trimer TP31001F (SARS-CoV-2, UniProt P0DTC2 14-1208)
Assay: SPR

Binder | Kd [nM]
B1 | 5.8
B2 | 0.9
B3 | 7.8
B4 | 0.7
B5 | 0.3
B6 | 0.1
B7 | 0.1
B8 | 3.5
B9 | 0.3
B10 | 1.3
B11 | 466
B12 | 0.6
B13 | 0.2
B14 | 1.4
B15 | 1.9
B16 | 0.2
B17 | 0.6

Binder | Kd [nM]
B18 | 1
B19 | 0.8
B20 | 2.2
B21 | 1
B22 | 5.3
B23 | 67.7
B24 | 0.1
B25 | 0.6
B26 | 20.7
B27 | 0.1
B28 | 0.5
B29 | 0.4
B30 | 1.8
B31 | 0.7
B32 | 1.9
B33 | 9050
B34 | 0.7
